Our source for the binding result and Kd values is PMC8373067, “The RGG domain in the C-terminus of the DEAD box helicases Dbp2 and Ded1 is necessary for G-quadruplex destabilization”.

For data set [1], the target named is T1, Oga1 WT (Schizosaccharomyces pombe, UniProt O42914 1-284).
T1 sequence: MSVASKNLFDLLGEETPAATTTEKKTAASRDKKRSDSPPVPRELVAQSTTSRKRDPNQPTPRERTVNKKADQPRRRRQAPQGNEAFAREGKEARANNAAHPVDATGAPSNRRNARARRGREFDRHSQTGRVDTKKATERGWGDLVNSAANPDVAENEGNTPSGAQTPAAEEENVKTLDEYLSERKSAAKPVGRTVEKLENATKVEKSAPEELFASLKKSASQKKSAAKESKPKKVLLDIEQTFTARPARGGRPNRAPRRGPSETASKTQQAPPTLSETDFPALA
Description: EMSA; 10 nM protein, Na+; EMSA: 0.4 nM 32P-oligo (0.2 nM in Fig S4), 50 mM Tris (pH not stated), 50 mM KCl (DNA) or NaCl (RNA), 2 mM MgCl2, 2 mM DTT, 0.25 mg/ml BSA, 10 min at 30 C. The settings on record: protein: recombinant, tags: C-terminal poly-His, label: 5'-32P. (In general: Mobility shift assays separate free from complexed probe on a gel.)

The target in data set [2] is T2, Dbp2 WT (Schizosaccharomyces pombe, UniProt P24782 1-550). Described as above. The conditions noted are these: protein: recombinant, tags: C-terminal poly-His, label: 5'-32P.
T2 sequence (P24782 whole entry): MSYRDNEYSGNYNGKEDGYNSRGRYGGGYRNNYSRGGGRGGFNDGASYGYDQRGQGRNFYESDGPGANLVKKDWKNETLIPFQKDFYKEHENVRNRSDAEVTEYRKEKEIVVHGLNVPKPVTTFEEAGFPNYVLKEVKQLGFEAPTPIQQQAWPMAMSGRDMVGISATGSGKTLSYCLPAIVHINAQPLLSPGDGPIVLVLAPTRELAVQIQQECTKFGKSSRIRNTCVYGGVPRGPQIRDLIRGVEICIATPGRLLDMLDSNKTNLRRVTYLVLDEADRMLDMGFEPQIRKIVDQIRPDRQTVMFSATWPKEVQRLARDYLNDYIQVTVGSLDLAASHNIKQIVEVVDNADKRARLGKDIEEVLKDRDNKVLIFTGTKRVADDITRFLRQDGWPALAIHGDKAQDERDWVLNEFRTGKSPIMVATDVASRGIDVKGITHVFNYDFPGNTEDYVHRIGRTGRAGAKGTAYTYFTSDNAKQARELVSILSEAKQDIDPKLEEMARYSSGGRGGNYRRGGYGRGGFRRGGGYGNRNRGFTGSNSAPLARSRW
The target of data set [3] is T3, Ded1 WT (Schizosaccharomyces pombe, UniProt O13370 1-636). The data set is described as above. The conditions noted are these: protein: recombinant, tags: C-terminal poly-His, label: 5'-32P.
T3 sequence (O13370 whole entry): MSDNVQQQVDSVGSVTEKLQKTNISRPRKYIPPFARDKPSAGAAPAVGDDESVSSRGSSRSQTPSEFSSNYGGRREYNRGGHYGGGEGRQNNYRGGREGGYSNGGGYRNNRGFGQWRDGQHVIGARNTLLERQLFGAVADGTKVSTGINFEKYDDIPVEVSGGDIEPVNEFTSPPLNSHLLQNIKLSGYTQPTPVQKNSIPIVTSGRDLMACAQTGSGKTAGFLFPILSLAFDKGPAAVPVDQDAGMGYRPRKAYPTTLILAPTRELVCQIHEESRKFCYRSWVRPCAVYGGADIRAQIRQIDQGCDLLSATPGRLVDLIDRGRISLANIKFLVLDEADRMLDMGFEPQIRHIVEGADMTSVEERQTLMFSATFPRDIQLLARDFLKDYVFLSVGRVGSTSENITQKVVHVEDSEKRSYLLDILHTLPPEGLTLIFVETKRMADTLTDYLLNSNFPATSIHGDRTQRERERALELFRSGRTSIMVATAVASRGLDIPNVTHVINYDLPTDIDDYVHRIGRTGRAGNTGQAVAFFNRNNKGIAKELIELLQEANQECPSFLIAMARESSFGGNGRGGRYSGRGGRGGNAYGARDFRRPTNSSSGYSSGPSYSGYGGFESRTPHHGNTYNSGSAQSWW
In data set [4] the target is T1, Oga1 WT. Description: EMSA; up to 10 nM protein; EMSA: 0.4 nM 32P-oligo (0.2 nM in Fig S4), 50 mM Tris (pH not stated), 50 mM KCl (DNA) or NaCl (RNA), 2 mM MgCl2, 2 mM DTT, 0.25 mg/ml BSA, 10 min at 30 C. The settings on record: protein: recombinant; tags: C-terminal poly-His; label: 5'-32P; single strand.
Data set [5] addresses T2, Dbp2 WT. Described as above. The settings on record: protein: recombinant; tags: C-terminal poly-His; label: 5'-32P; single strand.
Data set [6] has as its target T3, Ded1 WT. The data set is described as above. The settings on record: protein: recombinant; tags: C-terminal poly-His; label: 5'-32P; single strand.
Data set [7] deals with T2, Dbp2 WT. Briefly: EMSA; K+, 2 mM Mg2+; EMSA: 0.4 nM 32P-oligo (0.2 nM in Fig S4), 50 mM Tris (pH not stated), 50 mM KCl (DNA) or NaCl (RNA), 2 mM MgCl2, 2 mM DTT, 0.25 mg/ml BSA, 10 min at 30 C. The conditions noted are these: protein: recombinant; tags: C-terminal poly-His; label: 5'-32P; parallel G4, 5' A10 overhang.
The target in data set [8] is T3, Ded1 WT. The data set is described as above. The conditions noted are these: protein: recombinant; tags: C-terminal poly-His; label: 5'-32P; parallel G4, 5' A10 overhang.
[9] abbreviates: parallel G4, 5' U5 and 3' U5 overhangs.

For AAAAAAAAAAGGGGAAGGGUGGGGCAUGUUAUGGG (structured_RNA) [5'-RNA-G4 (10A-G4 RNA)], the binding result with Oga1 WT [1], with Dbp2 WT [2] and with Ded1 WT [3] was “binds” throughout.

For the molecule UUUUUGGGGAAGGGUGGGGCAUGUUAUGGGUUUUU (structured_RNA) [5'-RNA-G4-3' (5U-G4-5U RNA)], the binding result in the data set with Oga1 WT [1] (setting [9]), with Dbp2 WT [2] (setting [9]) and with Ded1 WT [3] (setting [9]) was “binds” in each case.

Consider AAAAAAAAAAGGTGCGAGGTGAGTGTGGAGTGAGG (ssDNA) [10A-rDNA scr], for which the binding result with Oga1 WT [4], with Dbp2 WT [5] and with Ded1 WT [6] was “no binding” each time.

For the molecule AAAAAAAAAAGGGGAAGGGTGGGGCATGTTATGGG (structured_DNA) [10A-rDNA G4], the results for the Kd in the data set with Dbp2 WT [7] and in the data set with Ded1 WT [8] were 3.84 ± 1.06 nM and 6.59 ± 0.1 nM, respectively.

The term Kd denotes the equilibrium constant for the complex coming apart.
